Experimental findings from US7772181B2, “Personal care compositions comprising modified variant Bowman Birk Protease Inhibitors” (Danisco US Inc., priority 2008, dated 2010) are described below.

T1: bovine pancreatic trypsin (Bos taurus, UniProt P00760)
T1 construct: purchased Worthington (Worthington Biochemical Corp.)
T1 sequence (P00760 24-246): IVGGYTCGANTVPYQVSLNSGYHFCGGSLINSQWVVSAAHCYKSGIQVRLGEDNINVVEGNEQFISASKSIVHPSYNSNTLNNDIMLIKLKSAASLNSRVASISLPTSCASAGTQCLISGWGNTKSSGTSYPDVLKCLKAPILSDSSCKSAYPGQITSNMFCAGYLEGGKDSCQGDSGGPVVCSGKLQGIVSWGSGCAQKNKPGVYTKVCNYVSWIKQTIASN

B1: M27A: BBIt-AV (SEQ ID NO:187) with single substitution M27A (protein)
chain: DDESSKPCCDQCACTKSNPPQCRCSDARLNSCHSACKSCACYNLYGWTCFCVDITDFCYEPCKPSE
modifications: synthetic BBIt-AV sequence
B2: BBIt-AV-A13I-M27R-L29P-A40K-F50T-V52A: modified variant BBPI, SEQ ID NO:619 (protein)
chain: DPDDESSKPCCDQCICTKSNPPQCRCSDRRPNSCHSACKSCKCYNLYGWTCTCADITDFCYEPCKPSE
modifications: synthetic BBPI variant
B3: BBIt-AV-Q11G-A13I-L29P-A40K-F50T-V52A: modified variant BBPI, SEQ ID NO:614 (protein)
chain: B2 chain with Q13G, R29M
modifications: synthetic BBPI variant
B4: BBIt-AV-S4V-A13I-L29P-A40K-F50T-V52A: modified variant BBPI, SEQ ID NO:612 (protein)
chain: B2 chain with S6V, R29M
modifications: synthetic BBPI variant
B5: BBIt-AV-A13I-L29K-A40K-F50T-V52A: modified variant BBPI, SEQ ID NO:620 (protein)
chain: B2 chain with R29M, P31K
modifications: synthetic BBPI variant
B6: BBIt-AV-S5P-A13I-L29P-A40K-F50T-V52A: modified variant BBPI, SEQ ID NO:613 (protein)
chain: B2 chain with S7P, R29M
modifications: synthetic BBPI variant
B7: BBIt-AV-A13I-S25R-L29P-A40K-F50T-V52A: modified variant BBPI, SEQ ID NO:616 (protein)
chain: B2 chain with S27R, R29M
modifications: synthetic BBPI variant
B8: BBIt-AV-A13I-L29P-S31A-A40K-F50T-V52A: modified variant BBPI, SEQ ID NO:621 (protein)
chain: B2 chain with R29M, S33A
modifications: synthetic BBPI variant
B9: BBIt-AV-A13I-S25R-L29P-S31A-A40K-F50T-V52A: modified variant BBPI, SEQ ID NO:617 (protein)
chain: B2 chain with S27R, R29M, S33A
modifications: synthetic BBPI variant
B10: BBIt-AV-A13I-L29P-S31R-A40K-F50T-V52A: modified variant BBPI, SEQ ID NO:622 (protein)
chain: B2 chain with R29M, S33R
modifications: synthetic BBPI variant
B11: BBIt-AV-A13I-L29P-A40K-F50T-V52T: modified variant BBPI, SEQ ID NO:625 (protein)
chain: B2 chain with R29M, A54T
modifications: synthetic BBPI variant
B12: BBIt-AV-A13I-S25R-L29P-S31R-A40K-F50T-V52A: modified variant BBPI, SEQ ID NO:618 (protein)
chain: B2 chain with S27R, R29M, S33R
modifications: synthetic BBPI variant
B13: BBIt-AV-A13I-L29P-A40K-F50K-V52A: modified variant BBPI, SEQ ID NO:624 (protein)
chain: B2 chain with R29M, T52K
modifications: synthetic BBPI variant
B14: S4V: BBIt-AV (SEQ ID NO:187) with single substitution S4V (protein)
chain: B1 chain with S4V, A27M
modifications: synthetic BBIt-AV sequence
B15: S65E: BBIt-AV (SEQ ID NO:187) with single substitution S65E (protein)
chain: B1 chain with A27M, S65E
modifications: synthetic BBIt-AV sequence
B16: S38N: BBIt-AV (SEQ ID NO:187) with single substitution S38N (protein)
chain: B1 chain with A27M, S38N
modifications: synthetic BBIt-AV sequence
B17: Q11G: BBIt-AV (SEQ ID NO:187) with single substitution Q11G (protein)
chain: B1 chain with Q11G, A27M
modifications: synthetic BBIt-AV sequence
B18: S5P: BBIt-AV (SEQ ID NO:187) with single substitution S5P (protein)
chain: B1 chain with S5P, A27M
modifications: synthetic BBIt-AV sequence
B19: 4D13BBIt-AV: BBIt-AV with 13 amino acid 4D13 insert (SEQ ID NO:389) at the N-terminus, SEQ ID NO:390 (protein)
chain: DDEPSKPCCDPDPDDESSKPCCDQCACTKSNPPQCRCSDMRLNSCHSACKSCACYNLYGWTCFCVDITDFCYEPCKPSE
modifications: synthetic BBI sequence

Where a chain is given by its changes, count along the chain named. In names and notes the source's numbering stands.

One assay addresses T1, bovine pancreatic trypsin. Description: Shake flask screen: trypsin inhibition after growth, 2-mercaptoethanol activation and acid/heat treatment. The format is biochemical.
Details: not given
How it is done:
To increase expression, the gene copy of the selected clones was amplified by sequentially streaking colonies on Luria agar plates with 25 μg/ml chloramphenicol until the growth rate was similar to growth on Luria agar plates without chloramphenicol. Cultures of the selected variants and controls were grown in 3 ml Luria broth with 25 μg/ml chloramphenicol in 15 ml tubes for ˜10 h. These cultures (30 μl) were then used to inoculate 30 ml of MBD medium in 250 ml baffled shake flasks and grown at 37° C. and 225 rpm for ˜60 h.
For selection of the variants with the best yields, the culture broths were processed as follows. The broth was first activated by mixing 20 ml of broth with 20 ml of 0.25 M glycine buffer (pH 9.3) and the pH was adjusted to 9.0 with 50% NaOH. Then, 2-mercaptoethanol was added to the diluted cultures to a final concentration of 2 mM and the cultures were incubated overnight at room temperature with gentle shaking. The BBIt-AV moiety was then cleaved from the fusion protein by acid/heat treatment, which was accomplished by first adjusting the pH of the activated broth to pH 1.9-2.0 with sulfuric acid, and followed by incubation at 60° C. for 16 hours, with shaking. The BBIt-AV-BCE fusion protein and the BCE catalytic domain are not soluble at pH 2, whereas the free BBI species is soluble. After the cleavage reaction, the insoluble material was removed by centrifugation (5 min. at 3,000 rpm) and the supernatant was analyzed for trypsin inhibitory activity as described above. The BBI activity was also determined for the starting material and for the samples taken after activation. The BCE activity of the starting material was also determined as described above. The BBIt-AV:BCE activity ratios were then calculated for each step in process. The modified BBIt-AVs produced at the highest yields following the acid/heat treatment were selected for further study.
With B1, the “yield after acid/heat treatment, better than V52L” value was “about 40%”. Turning to B2, the “yield after acid/heat treatment relative to BBIt-AV-A13I-L29P-A40K-F50T-V52A (SEQ ID NO:601)” value is on record as “somewhat less”. On the same count and under the same terms, the entry for B3 is “significantly lower yields”; for B4 it is “significantly lower yields”. On the same count and under the same terms, the entry for B5 is “significantly lower yields”; for B6 it is “significantly lower yields”; for B7 it is “significantly better yields”. Same read-out and setting: the entry for B8 is “somewhat less”. Turning to B9, the “yield after acid/heat treatment relative to BBIt-AV-A13I-L29P-A40K-F50T-V52A (SEQ ID NO:601)” value was “significantly better yields”. Still for that read-out and setting: the entry for B10 is “significantly better yields”; for B11 it is “somewhat less”. Same read-out and setting: the entry for B12 is “significantly better yields”; for B13 it is “slightly better yields”.

The assay is the same for the next values; noted with them: activated with 2-mercaptoethanol.
In the case of B14, the “BBIt-AV yield after acid/heat treatment relative to unmodified BBIt-AV” value is “improved yields after acid/heat treatment”.

Consider B15, for which the “BBIt-AV yield after acid/heat treatment relative to unmodified BBIt-AV” value is “improved yields after acid/heat treatment”. Still for that read-out and setting: the entry for B16 is “improved yields after acid/heat treatment”. On the same count and under the same terms, the entry for B17 is “improved yields after acid/heat treatment”; for B18 it is “improved yields after acid/heat treatment”.

The same assay, now with this note: relative to unmodified BBIt-AV.
Regarding B19, the “BBIt-AV:BCE activity ratio after acid/heat treatment” value is on record as “higher”.

The assay is the same for the next values; noted with them: single substitutions in BBIt-AV.
As for B1, the “activation level (BBIt-AV:BCE activity ratio after reducing agent)” value is recorded as “activate to similar levels”.
